In the data set the test system is GST-YTHDF2 (human). In words: EMSA. The settings on record: one N6-methyladenosine.

Usually Kd stands for the free concentration of one partner at which half of the binding sites on the other are occupied at equilibrium, for simple one-to-one binding.

m6A-RNA gave a Kd of 0.465 µM.

The record behind these values is article PMC3658177.
